The test concerns the target human prolactin receptor (hPRLR) expressed on mouse BaF3 cells (BaF3/hPRLR cells) (human) (UniProt P16471). Nature of the test: cell-based or functional assay.

human prolactin receptor (hPRLR) expressed on mouse BaF3 cells (BaF3/hPRLR cells) (human), sequence (P16471 25-622): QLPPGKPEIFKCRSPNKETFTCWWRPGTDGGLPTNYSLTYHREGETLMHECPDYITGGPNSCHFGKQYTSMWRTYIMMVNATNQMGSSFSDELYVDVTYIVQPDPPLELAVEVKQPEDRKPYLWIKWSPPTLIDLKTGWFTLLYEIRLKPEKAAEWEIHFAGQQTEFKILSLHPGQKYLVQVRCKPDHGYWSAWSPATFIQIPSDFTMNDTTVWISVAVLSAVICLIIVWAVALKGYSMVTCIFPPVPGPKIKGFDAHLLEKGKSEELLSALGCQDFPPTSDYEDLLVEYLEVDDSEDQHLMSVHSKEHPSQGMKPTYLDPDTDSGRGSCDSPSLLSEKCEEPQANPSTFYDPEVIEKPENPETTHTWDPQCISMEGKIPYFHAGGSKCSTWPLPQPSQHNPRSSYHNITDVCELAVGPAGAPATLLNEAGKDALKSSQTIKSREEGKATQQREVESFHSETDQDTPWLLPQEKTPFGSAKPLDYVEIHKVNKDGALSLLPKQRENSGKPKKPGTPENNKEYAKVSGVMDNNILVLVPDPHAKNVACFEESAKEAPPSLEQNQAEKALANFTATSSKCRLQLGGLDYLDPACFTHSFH

With “human prolactin (hPRL, R&D System Inc.) (from UniProt P01236 29-227) (ligand)”, the EC50, growth of BaF3/hPRLR cells (positive control) is 2.1 pM.
